This note sets out measurements from article PMC12748787.

For this assay, the target named is Trx-CaV1.2 JBM (mouse) (UniProt Q01815). As to the kind of experiment: ITC.
Sequence of Trx-CaV1.2 JBM (mouse) (Q01815 1647-1777): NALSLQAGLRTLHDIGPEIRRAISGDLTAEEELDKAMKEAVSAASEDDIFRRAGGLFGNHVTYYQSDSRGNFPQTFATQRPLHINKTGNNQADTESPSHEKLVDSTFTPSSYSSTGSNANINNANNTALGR

Substance “MBP-JPH2 NT S165F (mouse) (from UniProt Q9ET78 1-440) (domain or fragment)” showed a fold decrease in binding affinity against the wild type greater than 5 fold. The substance “JPH2 NT A399S (A405S in mouse JPH2) (from UniProt Q9ET78 1-440) (domain or fragment)” had a fold reduction in binding affinity against the wild type of 3 fold. For “JR-JBM chimera R160E/F165S (from UniProt Q9ET78 1-155; Q9ET78 168-440) (domain or fragment)”, the Kd (in general, the concentration at which binding is half-saturated) was 42 µM. On to “JPH2 NT E85K (from UniProt Q9ET78 1-440) (domain or fragment)”, for which the fold reduction in binding affinity against the wild type turned out to be 3 fold.
